Results on one substance are retold here after patent US7063950.

The target in this assay is human neuronal calcium channel α1B-1α2bβ1-2 (human). The assay is described as follows: ω-CgTx binding to transiently transfected HEK293 cells (plasmid ratio 2:1.8:1).

A word on the Kd: it is the free concentration of one partner at which half of the binding sites on the other are occupied at equilibrium, for simple one-to-one binding. As to “ω-CgTx GVIA (from UniProt P01522 46-72) (peptide)”, the Kd amounted to 54.6 pM and the binding capacity (Bmax) (sites per cell) turned out to be 28700.
